Assay results from patent US20180092975A1.

Assays:
[1] = biological target: human PD-1 expressed on cells (human) (UniProt Q15116); assay: flow cytometry on CHO cells expressing human PD-1, detection with anti-human IgG Fc, PE GeoMFI; design: unit not given here
[2] = biological target: cyno PD-1 expressed on cells (cynomolgus monkey) (UniProt B0LAJ3); assay: flow cytometry on CHO cells expressing cyno PD-1, detection with anti-human IgG Fc, PE GeoMFI; design: unit not given here
UniProt B0LAJ3, sequence (B0LAJ3 entry or part of it limits assumed): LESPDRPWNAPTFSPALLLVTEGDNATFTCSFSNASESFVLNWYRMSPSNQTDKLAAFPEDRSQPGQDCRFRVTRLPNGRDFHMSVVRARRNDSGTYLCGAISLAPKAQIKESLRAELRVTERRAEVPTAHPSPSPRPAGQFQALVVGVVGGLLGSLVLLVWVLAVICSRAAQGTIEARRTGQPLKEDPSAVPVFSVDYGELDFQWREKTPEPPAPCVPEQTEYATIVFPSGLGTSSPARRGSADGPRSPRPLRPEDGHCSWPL

UniProt Q15116, sequence (Q15116 25-198 limits assumed): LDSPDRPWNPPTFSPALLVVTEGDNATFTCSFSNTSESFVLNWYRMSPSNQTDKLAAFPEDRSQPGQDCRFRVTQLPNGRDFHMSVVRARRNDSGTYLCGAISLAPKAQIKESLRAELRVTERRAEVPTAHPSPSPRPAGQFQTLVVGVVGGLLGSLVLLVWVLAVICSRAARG

- LogEC50 [1]: -7.75
- LogEC50 [2]: -6.89
Substance: huIgG1 Fc
